Test results taken from patent publication US20060286142A1.

Biological target: biotinylated alkaline phosphatase
Assay: SPR (Spreeta) refractive index response to 2 ug/ml b-AP on gold channels saturated with GBP-SA then GBP, after exposure to foulants (fibrinogen, human serum albumin, plasma, platelets)

His6 tagged fusion protein streptavidin-GBP (from UniProt P22629 13-133)
relative response to b-AP (% of GBP-SA control channel): 80 to 100%
